# Target: T1, Hmm-hTFRC (REGN2431), monomeric human transferrin receptor ectodomain with N-terminal hexahistidine-myc-myc … (human, UniProt P02786 89-760)
# T1 construct: also called hmm.hTfR(C89-F763); His-myc-myc-hTFRC ecto
# Assay: blocking ELISA, supernatant; Hmm-hTFRC binding to immobilized human holo-Tf
# Procedure, shortened: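 Plates were coated with anti-hTf goat pAb at 2 µg/mL overnight at 4 °C, then loaded with human holo-Tf at 1 µg/mL for 2 h at room temperature. Bound receptor was detected with TMB and absorbance read at 450 nm.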
# T1 sequence (P02786 other isoform, or with tags, fused parts or gaps): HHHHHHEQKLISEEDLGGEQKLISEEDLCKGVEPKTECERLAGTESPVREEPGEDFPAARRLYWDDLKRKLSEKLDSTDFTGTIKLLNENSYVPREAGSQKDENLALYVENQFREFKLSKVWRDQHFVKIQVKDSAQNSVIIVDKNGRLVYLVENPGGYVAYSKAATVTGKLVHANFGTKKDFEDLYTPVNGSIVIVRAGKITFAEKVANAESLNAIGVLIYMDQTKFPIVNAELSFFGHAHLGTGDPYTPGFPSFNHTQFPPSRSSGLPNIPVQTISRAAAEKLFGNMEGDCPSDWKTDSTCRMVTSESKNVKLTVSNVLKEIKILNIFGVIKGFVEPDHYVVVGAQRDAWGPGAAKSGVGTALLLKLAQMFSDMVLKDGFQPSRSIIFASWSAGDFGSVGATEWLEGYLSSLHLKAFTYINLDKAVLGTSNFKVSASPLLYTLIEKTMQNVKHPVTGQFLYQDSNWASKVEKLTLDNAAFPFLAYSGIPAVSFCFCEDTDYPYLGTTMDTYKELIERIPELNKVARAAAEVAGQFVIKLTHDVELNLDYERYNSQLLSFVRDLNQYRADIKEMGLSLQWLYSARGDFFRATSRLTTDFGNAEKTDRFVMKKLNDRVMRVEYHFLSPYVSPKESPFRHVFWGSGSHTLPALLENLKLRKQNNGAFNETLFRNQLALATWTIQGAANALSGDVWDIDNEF
row,% Blocking,Binder
1,13%,"69331 scFv (VK-VH) (scFv, CHO supernatant; Vk-3xG4S-Vh) scFv: DIQLTQSPSSLSASVGDRVTITCWASQGISSYLAWYQQKPGKAPKLLIYAASTLQSGVPSRFSGSGSGTEFTLTISSLQPEDFATYYCQQLNSYPLTFGGGTKVEIKGGGGSGGGGSGGGGSQVQLVESGGGVVQPGRSLRLSCIASGFTFSVYGIHWVRQAPGKGLEWMAVISHDGNIKHYADSVKGRFTISRDNSKNTLYLQINSLRTEDTAVYYCAKDTWNSLDTFDIWGQGTMVTVSS"
2,3%,"69340 Fab (Fab, V domains shown, CHO supernatant) VH: EVQLVESGGGLVQPGRSLRLSCAASGFTFDDKAMHWVRQVPGKGLEWISGISWNSGTIGYADSVKGRFIISRDNAKNSLYLQMNSLRAEDTALYYCAKDGDTSGWYWYGLDVWGQGTTVTVSS VL: EIVLTQSPATLSLSPGERATLSCRASQSVSSYLAWYQQKPGQAPRLLIHDVSNRATGIPARFSGSGSGTDFTLTISSLEPEDFVVYYCQQRSDWPITFGQGTRLEIKR"
3,7%,69331 scFv (VH-VK) (scFv) QVQLVESGGGVVQPGRSLRLSCIASGFTFSVYGIHWVRQAPGKGLEWMAVISHDGNIKHYADSVKGRFTISRDNSKNTLYLQINSLRTEDTAVYYCAKDTWNSLDTFDIWGQGTMVTVSSDIQLTQSPSSLSASVGDRVTITCWASQGISSYLAWYQQKPGKAPKLLIYAASTLQSGVPSRFSGSGSGTEFTLTISSLQPEDFATYYCQQLNSYPLTFGGGTKVEIK
4,18%,"69332 Fab (Fab, V domains shown, CHO supernatant) VH: QVTLRESGPALVKPSQTLTLTCTFSGFSLNTYGMFVSWIRQPPGKALEWLAHIHWDDDKYYSTSLKTRLTISKDTSKNQVVLTMTNMDPVDTATYYCARGHNNLNYIIHWGQGTLVTVSS VL: AIQMTQSPSSLSASVGDRVTITCRASQGIRNDLGWYQQKPGKAPKLLIYAASTLQSGVPSRFSGSGSGTDFTLTISSLQPEDFATYYCLQDYNYPFTFGPGTKVDIKR"
5,13%,"69340 scFv (VK-VH) (scFv, CHO supernatant; Vk-3xG4S-Vh) scFv: EIVLTQSPATLSLSPGERATLSCRASQSVSSYLAWYQQKPGQAPRLLIHDVSNRATGIPARFSGSGSGTDFTLTISSLEPEDFVVYYCQQRSDWPITFGQGTRLEIKGGGGSGGGGSGGGGSEVQLVESGGGLVQPGRSLRLSCAASGFTFDDKAMHWVRQVPGKGLEWISGISWNSGTIGYADSVKGRFIISRDNAKNSLYLQMNSLRAEDTALYYCAKDGDTSGWYWYGLDVWGQGTTVTVSS"
6,22%,"69332 scFv (VK-VH) (scFv, CHO supernatant; Vk-3xG4S-Vh) scFv: AIQMTQSPSSLSASVGDRVTITCRASQGIRNDLGWYQQKPGKAPKLLIYAASTLQSGVPSRFSGSGSGTDFTLTISSLQPEDFATYYCLQDYNYPFTFGPGTKVDIKGGGGSGGGGSGGGGSQVTLRESGPALVKPSQTLTLTCTFSGFSLNTYGMFVSWIRQPPGKALEWLAHIHWDDDKYYSTSLKTRLTISKDTSKNQVVLTMTNMDPVDTATYYCARGHNNLNYIIHWGQGTLVTVSS"
7,6%,69340 scFv (VH-VK) (scFv) EVQLVESGGGLVQPGRSLRLSCAASGFTFDDKAMHWVRQVPGKGLEWISGISWNSGTIGYADSVKGRFIISRDNAKNSLYLQMNSLRAEDTALYYCAKDGDTSGWYWYGLDVWGQGTTVTVSSEIVLTQSPATLSLSPGERATLSCRASQSVSSYLAWYQQKPGQAPRLLIHDVSNRATGIPARFSGSGSGTDFTLTISSLEPEDFVVYYCQQRSDWPITFGQGTRLEIK
8,6%,69332 scFv (VH-VK) (scFv) QVTLRESGPALVKPSQTLTLTCTFSGFSLNTYGMFVSWIRQPPGKALEWLAHIHWDDDKYYSTSLKTRLTISKDTSKNQVVLTMTNMDPVDTATYYCARGHNNLNYIIHWGQGTLVTVSSAIQMTQSPSSLSASVGDRVTITCRASQGIRNDLGWYQQKPGKAPKLLIYAASTLQSGVPSRFSGSGSGTDFTLTISSLQPEDFATYYCLQDYNYPFTFGPGTKVDIK

# Further lines, the binder ahead of its results:
row,Binder,% Blocking
1,69326 scFv (VH-VK) (scFv) EVQLVESGGGLVQPGGSLRLSCAVSGFIFSSYEMNWVRQAPGKGLEWVSYISSSGSTIFYADSVKGRFTISRDNAKNSLYLQMNSLRAEDTAVYYCVSGVVLFDVWGQGTMVTVSSEIVMTQSPATLSVSPGERATLSCRASQSVSSNFAWYQQKPGQAPRLLIYSASSRATGIPVRFSGSGSGTEFTLTISSLQSEDFAVYYCQQYNIWPRTFGQGTKVEIK,18%
2,"69331 Fab (Fab, V domains shown, CHO supernatant) VH: QVQLVESGGGVVQPGRSLRLSCIASGFTFSVYGIHWVRQAPGKGLEWMAVISHDGNIKHYADSVKGRFTISRDNSKNTLYLQINSLRTEDTAVYYCAKDTWNSLDTFDIWGQGTMVTVSS VL: DIQLTQSPSSLSASVGDRVTITCWASQGISSYLAWYQQKPGKAPKLLIYAASTLQSGVPSRFSGSGSGTEFTLTISSLQPEDFATYYCQQLNSYPLTFGGGTKVEIKR",9%
3,"69323 Fab (Fab, V domains shown, CHO supernatant) VH: EVQLVESGGGLVQPGRSLRLSCAASGFTFDDYAMHWVRQAPGKGLEWVSGISWNSGYIGYADSVKGRFTISRDNAENSLHLQMNSLRAEDTALYYCARGGSTLVRGVKGGYYGMDVWGQGTTVTVSS VL: not shown",12%
4,69329 scFv (VH-VK) (scFv) EVQLVESGGGLVQPGGSLRLSCAASGFTFSNYWMTWVRQAPGKGLEWVANIKEDGSEKDYVDSVKGRFTISRDNAKNSLYLQMNSLRGEDTAVYYCARDGEQLVDYYYYYVMDVWGQGTTVTVSSDIQMTQSPSSVSASVGDRVTITCRASQGISSWLAWYQQKPGKAPKLLIYAASSLQSGVPSRFSGSGSGTDFTLTISSLQPEDFATYYCQKANSFPYTFGQGTKLEIK,25%
5,"69326 Fab (Fab, V domains shown, CHO supernatant) VH: EVQLVESGGGLVQPGGSLRLSCAVSGFIFSSYEMNWVRQAPGKGLEWVSYISSSGSTIFYADSVKGRFTISRDNAKNSLYLQMNSLRAEDTAVYYCVSGVVLFDVWGQGTMVTVSS VL: EIVMTQSPATLSVSPGERATLSCRASQSVSSNFAWYQQKPGQAPRLLIYSASSRATGIPVRFSGSGSGTEFTLTISSLQSEDFAVYYCQQYNIWPRTFGQGTKVEIKR",-2%
6,"69307 scFv (VK-VH) (scFv, CHO supernatant; Vk-3xG4S-Vh) scFv: DIQMTQSPSSVSASVGDRVTITCRASQGISSWLAWYQQKPGKAPKLLIYAASSLQSGVPSRFSGSGSGTDFTLTISSLQPEDFATYYCQKADSLPYAFGQGTKLEIKGGGGSGGGGSGGGGSEVQLVESGGGLVQPGGSLRLSCTASGFTFSNYWMTWVRQAPGKGLEWVANIKEDGSEKEYVDSVKGRFTISRDNAKNSLYLQMNSLRGEDTAVYYCARDGEQLVDYYYYYVMDVWGQGTTVTVSS",12%
7,"69329 scFv (VK-VH) (scFv, CHO supernatant; Vk-3xG4S-Vh) scFv: DIQMTQSPSSVSASVGDRVTITCRASQGISSWLAWYQQKPGKAPKLLIYAASSLQSGVPSRFSGSGSGTDFTLTISSLQPEDFATYYCQKANSFPYTFGQGTKLEIKGGGGSGGGGSGGGGSEVQLVESGGGLVQPGGSLRLSCAASGFTFSNYWMTWVRQAPGKGLEWVANIKEDGSEKDYVDSVKGRFTISRDNAKNSLYLQMNSLRGEDTAVYYCARDGEQLVDYYYYYVMDVWGQGTTVTVSS",19%
8,"69326 scFv (VK-VH) (scFv, CHO supernatant; Vk-3xG4S-Vh) scFv: EIVMTQSPATLSVSPGERATLSCRASQSVSSNFAWYQQKPGQAPRLLIYSASSRATGIPVRFSGSGSGTEFTLTISSLQSEDFAVYYCQQYNIWPRTFGQGTKVEIKGGGGSGGGGSGGGGSEVQLVESGGGLVQPGGSLRLSCAVSGFIFSSYEMNWVRQAPGKGLEWVSYISSSGSTIFYADSVKGRFTISRDNAKNSLYLQMNSLRAEDTAVYYCVSGVVLFDVWGQGTMVTVSS",12%

# From patent US20250049896A1 (Regeneron, published 2025)
